{
  "source": "patent US20200166530A1",
  "about": "(CASE WESTERN RESERVE UNIVERSITY, published 2020)",
  "target": "T1, hERα^CDE, multidomain segment of human estrogen receptor alpha containing both DBD and LBD (residues … (human, UniProt P03372 181-552))",
  "T1 construct": "Expressed in E. coli from the pMCSG7 vector; It functions as a homodimer; In the SPR assay it was injected as the complex with ERE-DNA and estradiol; also called hERα^CDE-DNA-E2 complex",
  "T1 sequence": "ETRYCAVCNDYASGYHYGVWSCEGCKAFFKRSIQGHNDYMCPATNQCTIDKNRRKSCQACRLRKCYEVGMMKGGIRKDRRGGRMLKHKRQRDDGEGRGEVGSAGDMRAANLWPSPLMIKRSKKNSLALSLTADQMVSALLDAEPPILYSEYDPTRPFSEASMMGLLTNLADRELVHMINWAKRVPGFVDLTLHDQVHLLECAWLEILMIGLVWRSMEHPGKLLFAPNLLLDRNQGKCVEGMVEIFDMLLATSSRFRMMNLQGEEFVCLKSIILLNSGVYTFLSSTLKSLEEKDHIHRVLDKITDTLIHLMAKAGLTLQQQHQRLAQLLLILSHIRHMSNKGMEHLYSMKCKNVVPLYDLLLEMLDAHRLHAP",
  "test": "SPR (Biacore T100): biotinylated TIF2 peptide immobilised on an SA chip, hERα^CDE-DNA-E2 complex injected at 0-5 µM, 25° C [panel e]",
  "description": "Measurements were conducted at 25° C. using a Biacore T100 system.",
  "note": "Ends that are not written are not given here.",
  "data": [
    {"binder": "KENALLRYLLDKDD (also: biotinylated (position not given here), For SPR the peptide was biotinylated and captured on an SA sensor chip at 10 RUs; also called biotinylated TIF2 peptide)", "note": "[coactivator TIF2 peptide (KENALLRYLLDKDD)]", "values": [
      {"measurement": "binding result", "result": "binds"}
    ]}
  ]
}
